Target: T1, His::Ecd (Drosophila melanogaster, UniProt Q9W032 1-684)
T1 construct: Ecdysoneless (Ecd), Drosophila melanogaster; cDNA cloned into pET28b; also called His-tagged Ecd; source: E. coli BL21 Rosetta (DE3), purified (Ni Sepharose)
T1 sequence (looked up): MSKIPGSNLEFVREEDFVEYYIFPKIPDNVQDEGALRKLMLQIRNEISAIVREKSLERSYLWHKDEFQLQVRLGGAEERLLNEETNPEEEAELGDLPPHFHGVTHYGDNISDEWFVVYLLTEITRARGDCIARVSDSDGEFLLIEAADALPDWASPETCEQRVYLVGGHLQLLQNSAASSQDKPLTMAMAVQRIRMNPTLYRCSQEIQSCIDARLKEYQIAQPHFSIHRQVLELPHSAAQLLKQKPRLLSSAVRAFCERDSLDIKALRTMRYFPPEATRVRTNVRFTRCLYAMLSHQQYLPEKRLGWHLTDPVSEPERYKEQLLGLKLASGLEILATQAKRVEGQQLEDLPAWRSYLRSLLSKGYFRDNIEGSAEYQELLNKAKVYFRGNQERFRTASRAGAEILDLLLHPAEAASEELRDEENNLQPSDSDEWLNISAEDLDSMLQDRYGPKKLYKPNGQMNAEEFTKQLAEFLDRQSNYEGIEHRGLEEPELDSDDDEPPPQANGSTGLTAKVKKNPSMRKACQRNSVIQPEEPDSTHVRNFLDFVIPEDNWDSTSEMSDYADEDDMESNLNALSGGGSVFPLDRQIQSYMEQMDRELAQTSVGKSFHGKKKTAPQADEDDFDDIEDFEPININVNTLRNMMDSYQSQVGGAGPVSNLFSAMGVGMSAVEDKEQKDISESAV
Test: pull-down; 10 μg of purified His::Ecd and His::SmD3::HA incubated alone or together overnight at 4°C with protein G Dynabeads coupled to rat anti-Ecd N-term antibody; western blot
Settings: both partners purified

binding result: binds
B1: His::SmD3::HA (natural protein, Drosophila melanogaster, UniProt O44437 1-151, looked up)
chain: MSIGVPIKVLHEAEGHIITCETITGEVYRGKLIEAEDNMNCQMTQITVTYRDGRTANLENVYIRGSKIRFLILPDMLKNAPMFKKQTGKGLGGTAGRGKAAILRAQARGRGRGGPPGGGRGTGGPPGAPGGSGGRGAWQGGPTGGRGRGGL
notes: Sm ring protein SmD3, Drosophila melanogaster; cDNA cloned into Gateway pDEST17; also called His-tagged SmD3; source: E. coli BL21 Rosetta (DE3), purified (Ni Sepharose)

— article PMC7897482, “Ecd promotes U5 snRNP maturation and Prp8 stability” (Nucleic Acids Research, 2021)
